These are literature values, as cited in paper PMC8711257.

By Kd is commonly meant a measure of binding affinity in units of concentration.

The target in one series is MET (Homo sapiens) (UniProt P08581).
A further series deals with MET ECD (Homo sapiens) (UniProt P08581).

On to HGF NK1 NK1 (from UniProt P14210), for which the Kd with MET (Homo sapiens) is 3 nM; with MET ECD (Homo sapiens) it was 150 nM.
